According to patent US20190083587A1 (Novo Nordisk, published 2019):
Substitutions are numbered along the chain they refer to. Blank lines part the entries; values can stand above or below the binder they belong to.

Key:
hTLT-1 ECD-HPC4 L42A = target: T1, hTLT-1 ECD-HPC4 L42A (human, UniProt Q86YW5 16-162); experiment: SPR ProteOn, mAb captured by anti-hFc, 100 nM mutant, signal 10 s after injection
T1 construct: Built as m17; also called Ala mutant 8
T1 chain: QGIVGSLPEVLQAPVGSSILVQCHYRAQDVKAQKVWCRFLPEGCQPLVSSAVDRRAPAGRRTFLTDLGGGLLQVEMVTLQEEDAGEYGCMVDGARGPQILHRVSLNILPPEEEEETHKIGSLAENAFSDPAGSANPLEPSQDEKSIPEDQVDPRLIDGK
Protocol: (§1) Each antibody was diluted in 10 mM sodium acetate pH 5.0 to a concentration of 50 μg/ml, and was immobilized to an individual flow cell at 30 μl/min for 240 s. The antibodies were immobilized to flow cells A1-A6 (horizontal direction). After immobilization, the active sites on the flow cell were blocked with 1 M ethanolamine. The final immobilization level of capture antibody typically ranged from approximately 9,000 to 10,000 RU in one experiment. Capture of the anti-TLT-1 antibodies mAb0023, mAb0051, mAb0061 and mAb0062 was conducted by diluting to 0.5 μg/ml into HBS-EP buffer (10 mM HEPES, 150 mM NaCl, 3 mM EDTA, 0.05% surfactant P20, pH 7.4) and injected at 30 μl/min for 60 s in vertical direction, creating interspot reference points with only anti-human Fc antibodies.
(§2) The final capture level of test antibodies typically ranged from approximately 200 to 300 RU in one experiment. Binding of wt or Ala mutant hTLT-1 ECD-HPC4 protein was conducted by injecting over parallel flow cells in horizontal direction to allow for comparative analyses of binding to different captured anti-TLT-1 antibodies relative to binding to the interspot references. Each hTLT-1 ECD-HPC4 protein was diluted to 100 nM, based on the calculated average Mw, into HBS-EP buffer and injected at 30 μl/min for 240 s. The GLM chip was regenerated after each injection cycle of analyte via one 18 s injection of 1 M Formic acid followed by a 18s injection of 50 mM NaOH at 100 μl/min. This regeneration step removed the anti-TLT-1 antibody and any bound TLT-1 from the immobilized capture antibody surface, and allowed for the subsequent binding of the next test sample pair.
(§3) Data analysis was performed using the ProteOn Manager™ Software. No significant non-specific binding to the interspot control surfaces was observed. Binding curves were processed by double referencing (subtraction of interspot control surface signals as well as blank buffer injections over captured anti-TLT-1 antibodies). This allowed correction for instrument noise, bulk shift and drift during sample injections. Binding signal at 10 s after stop of analyte injection was normalized to level of captured anti-TLT-1 antibody and presented as binding relative to wt hTLT-1 ECD-HPC4 protein.

hTLT-1 ECD-HPC4 M91A = target: T2, hTLT-1 ECD-HPC4 M91A (human, UniProt Q86YW5 16-162); experiment: as above
T2 construct: Built as m17; also called Ala mutant 24
T2 chain: T1 chain with A27L, M76A
Protocol: as §1, §2, §3

hTLT-1 ECD-HPC4 K46A = target: T3, hTLT-1 ECD-HPC4 K46A (human, UniProt Q86YW5 16-162); experiment: as above
T3 construct: Built as m17; also called Ala mutant 10
T3 chain: T1 chain with A27L, K31A
Protocol: as §1, §2, §3

hTLT-1 ECD-HPC4 Q43A = target: T4, hTLT-1 ECD-HPC4 Q43A (human, UniProt Q86YW5 16-162); experiment: as above
T4 construct: Built as m17; also called Ala mutant 9
T4 chain: T1 chain with A27L, Q28A
Protocol: as §1, §2, §3

hTLT-1 ECD-HPC4 R110A = target: T5, hTLT-1 ECD-HPC4 R110A (human, UniProt Q86YW5 16-162); experiment: as above
T5 construct: Built as m17; also called Ala mutant 30
T5 chain: T1 chain with A27L, R95A
Protocol: as §1, §2, §3

hTLT-1 ECD-His = target: T6, hTLT-1 ECD-His (human, UniProt Q86YW5 16-162); experiment: SPR Biacore, mAb immobilised directly, TLT-1 as analyte
T6 construct: Extracellular domain of human TLT-1 with C-terminal His-6 tag; the range 16-168 is computed from these; also called TLT-1-His; His tagged human TLT1
T6 sequence: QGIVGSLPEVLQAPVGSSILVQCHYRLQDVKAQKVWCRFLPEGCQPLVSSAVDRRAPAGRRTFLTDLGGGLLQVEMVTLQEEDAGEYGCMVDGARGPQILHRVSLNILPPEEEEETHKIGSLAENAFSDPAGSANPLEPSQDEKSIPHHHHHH
Protocol: Method: The mAbs of interest were either immobilized directly to a CM5 chip or by capture via a human Fc capture mAb immobilized to a CM5 chip, while TLT-1-His was immobilized by capture via an anti-His mAb CM5 chip for analysis of Fabs.
mAb direct capture: The TLT-1 mAbs were immobilised to a level of approx 500-1000 RU on a CM5 chip (50 μg/ml diluted in Na-acetate, pH 4.0) using the standard procedure recommended by the supplier. Two-fold dilutions of TLT-1 from 200 nM to 0.2 nM were tested for binding to the mAbs. Running and dilution buffer: 10 mM HEPES, 150 mM, 0.005% p20, pH 7.4. Regeneration was obtained by 10 mM Glycine, pH 1.7. mAb capture via human Fc mAb: Human Fc mAb was immobilised to approx 10.000 RU. The mAb of interest was added (approx 100 nM). Two-fold dilutions of TLT-1 from 200 nM to 0.2 nM were tested. Running and dilution buffer: 10 mM HEPES, 150 mM, 0.005% p20, pH 7.4. Regeneration was obtained in 3 M MgCl₂.

hTLT-1.126-162 = target: T7, hTLT-1.126-162 (human); experiment: crystal structure of the Fab0100:hTLT-1.126-162 complex; complex isolated by gel filtration
T7 construct: Made by solid phase peptide synthesis; not glycosylated; also called TLT-1 stalk peptide; chain P
T7 peptide: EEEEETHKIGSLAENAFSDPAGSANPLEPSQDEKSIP
Protocol: The complex was subjected to gel filtration using a Superdex 200 HighLoad 26/60 (GE Healthcare) column eluted with PBS-buffer (pH 7.4) at a flow rate of 1 ml/min. Fractions corresponding to a volume of 3 ml were collected.
The crystal was allowed to soak for about 15 seconds, then flash frozen in liquid N₂ and during data collection kept at 100 K by a cryogenic N₂ gas stream. Crystallographic data were subsequently collected to 1.85 Å resolution at beam-line BL911-3 (Ursby, T. et al. (2004) AIP Conference Proceedings 705, 1241-1246) at MAX-lab, Lund, Sweden. Space group determination, integration and scaling of the data were made in the XDS software package. Cell parameters for the synchrotron data were determined to be 82.54, 65.32, 108.05 Å, 90°, 95.15° and 90°, for a, b, c, α, β and γ, respectively, and space group was determined to be C2. Rsym for intensities of the data set was calculated to be 6.7%.

binding relative to wt hTLT-1 ECD-HPC4 (hTLT-1 ECD-HPC4 L42A): < 0.2 fraction of wt | binding relative to wt hTLT-1 ECD-HPC4 (hTLT-1 ECD-HPC4 M91A): < 0.4 fraction of wt | binding relative to wt hTLT-1 ECD-HPC4 (hTLT-1 ECD-HPC4 K46A): < 0.2 fraction of wt | binding relative to wt hTLT-1 ECD-HPC4 (hTLT-1 ECD-HPC4 Q43A): < 0.2 fraction of wt | binding relative to wt hTLT-1 ECD-HPC4 (hTLT-1 ECD-HPC4 R110A): < 0.2 fraction of wt | Kd (hTLT-1 ECD-His): 4.36 nM | koff (hTLT-1 ECD-His): 0.00125 s⁻¹ | kon (hTLT-1 ECD-His): 287000 M⁻¹ s⁻¹
B1: mAb0023 (antibody, V domains shown)
VH: EVRLVESGGGLVQPGGSLKLSCATSGFTFSDYFMYWIRQTPEKRLEWVAYISNGGDSSSYPDTVKGRFTISRDNAKNTLYLQMSRLKSEDTAMYYCATNKNWDDYYDMDYWGQGTSVTVSS
VL: DIVVSQSPSSLAVSAGEKVTMSCKSSQSLLNSRTRKNYLAWYQQKPGQSPKLLIYWASTRESGVPDRFTGSGSGTDFTLTISSVQAEDLAVYYCKQSYNLLTFGAGTKLELKR
notes: Mouse VH/VL, human IgG4 / kappa; also called antiTLT-1 0023mab

binding result (hTLT-1.126-162): binds
B2: Fab0100 (Fab, V domains shown)
VH: EVKLLESGGGLVQPGGSLKLSCAASGFDFSRYWMTWVRQAPGKGLEWIGEINPDSSTINYNPSLKDKFIISRDNAKNTLYLQMSEVRSEDTALYYCASGVFTSWGQGTLVTVSA
VL: DVVMTQTPLSLPVSLGDQASISCRSSQSLVHRNGNTYFHWALQKPGQSPKLLIYKVSNRFSGVPDRFSGSGSGTDFTLKISRVEAEDLGVYFCSQSTHVPYTFGGGTKLEIKR
notes: also called anti-TLT-1 Fab; identical to Fab0061
